Consider 7 molecules from article PMC8031885, “Targeted mutagenesis on PDGFRα-Fc identifies amino acid modifications that allow efficient inhibition of HCMV infection while abolishing PDGF sequestration” (PLoS Pathogens, 2021).

Common to all, as to test: cell-based or functional assay
The target of experiment [1] is T1, gH/gL/gO trimer of HCMV TB40-BAC4 (human cytomegalovirus, strain TB40/E …).
Experiment [2] concerns the target T1, gH/gL/gO trimer of HCMV TB40-BAC4. This is another data set of the same source.
In a further experiment the target is PDGF-BB (UniProt P01127 82-190, NT-647 dye on amines (amine reactive labelling kit RED-NHS) in the MST experiments; unlabelled in the signalling assays).
Experiment [3] has as its target T1, gH/gL/gO trimer of HCMV TB40-BAC4. The source holds these as a separate data set.

B1: PDGFRα-Fc wild type (Fc fusion)
chain: QLSLPSILPNENEKVVQLNSSFSLRCFGESEVSWQYPMSEEESSDVEIRNEENNSGLFVTVLEVSSASAAHTGLYTCYYNHTQTEENELEGRHIYIYVPDPDVAFVPLGMTDYLVIVEDDDSAIIPCRTTDPETPVTLHNSEGVVPASYDSRQGFNGTFTVGPYICEATVKGKKFQTIPFNVYALKATSELDLEMEALKTVYKSGETIVVTCAVFNNEVVDLQWTYPGEVKGKGITMLEEIKVPSIKLVYTLTVPEATVKDSGDYECAARQATREVKEMKKVTISVHEKGFIEIKPTFSQLEAVNLHEVKHFVVEVRAYPPPRISWLKNNLTLIENLTEITTDVEKIQEIRYRSKLKLIRAKEEDSGHYTIVAQNEDAVKSYTFELLTQVPSSILDLVDDHHGSTGGQTVRCTAEGTPLPDIEWMICKDIKKCNNETSWTILANNVSNIITEIHSRDRSTVEGRVTFAKVEETIAVRCLAKNLLGAENRELKLVAPTLRSELTVA
For B1, in experiment [1], the “HCMV inhibition EC50 (Table 2; differs from Table 1)” value was found to be 0.0046 µg/mL. Further, in experiment [2], the “EC50 of inhibition of HCMV TB40-BAC4-IE-GLuc infection of fibroblasts (Gaussia luciferase read-out)” value is under 0.02 µg/mL; the “EC50 of inhibition of HCMV TB40-BAC4 infection of fibroblasts and of endothelial cells (immediate-early antigen staining)” value was about 0.01 µg/mL. Further, the “EC50 for inhibition of PDGF signaling (6 ng/ml PDGF-BB, phospho-Akt ELISA, fibroblasts)” value with PDGF-BB was 0.013 µg/mL. Moreover, the “HCMV inhibition EC50 (TB40-BAC4-IE-GLuc, fibroblasts, immediate-early antigen staining)” value in experiment [3] was found to be 0.0056 µg/mL.

B2: PDGFRα-Fc I139E + V242K (Fc fusion)
chain: QLSLPSILPNENEKVVQLNSSFSLRCFGESEVSWQYPMSEEESSDVEIRNEENNSGLFVTVLEVSSASAAHTGLYTCYYNHTQTEENELEGRHIYIYVPDPDVAFVPLGMTDYLVEVEDDDSAIIPCRTTDPETPVTLHNSEGVVPASYDSRQGFNGTFTVGPYICEATVKGKKFQTIPFNVYALKATSELDLEMEALKTVYKSGETIVVTCAVFNNEKVDLQWTYPGEVKGKGITMLEEIKVPSIKLVYTLTVPEATVKDSGDYECAARQATREVKEMKKVTISVHEKGFIEIKPTFSQLEAVNLHEVKHFVVEVRAYPPPRISWLKNNLTLIENLTEITTDVEKIQEIRYRSKLKLIRAKEEDSGHYTIVAQNEDAVKSYTFELLTQVPSSILDLVDDHHGSTGGQTVRCTAEGTPLPDIEWMICKDIKKCNNETSWTILANNVSNIITEIHSRDRSTVEGRVTFAKVEETIAVRCLAKNLLGAENRELKLVAPTLRSELTVA
For B2, the “HCMV inhibition EC50 (fibroblasts, immediate-early antigen staining)” value in experiment [2] is 0.027 µg/mL.

B3: PDGFRα-Fc I139E + Y206S (Fc fusion)
chain: QLSLPSILPNENEKVVQLNSSFSLRCFGESEVSWQYPMSEEESSDVEIRNEENNSGLFVTVLEVSSASAAHTGLYTCYYNHTQTEENELEGRHIYIYVPDPDVAFVPLGMTDYLVEVEDDDSAIIPCRTTDPETPVTLHNSEGVVPASYDSRQGFNGTFTVGPYICEATVKGKKFQTIPFNVSALKATSELDLEMEALKTVYKSGETIVVTCAVFNNEVVDLQWTYPGEVKGKGITMLEEIKVPSIKLVYTLTVPEATVKDSGDYECAARQATREVKEMKKVTISVHEKGFIEIKPTFSQLEAVNLHEVKHFVVEVRAYPPPRISWLKNNLTLIENLTEITTDVEKIQEIRYRSKLKLIRAKEEDSGHYTIVAQNEDAVKSYTFELLTQVPSSILDLVDDHHGSTGGQTVRCTAEGTPLPDIEWMICKDIKKCNNETSWTILANNVSNIITEIHSRDRSTVEGRVTFAKVEETIAVRCLAKNLLGAENRELKLVAPTLRSELTVA
Consider B3, for which the “HCMV inhibition EC50 (TB40-BAC4-IE-GLuc, fibroblasts, immediate-early antigen staining)” value in experiment [3] amounted to 0.0252 µg/mL.

B4: PDGFRα-Fc Y206S (Fc fusion)
chain: QLSLPSILPNENEKVVQLNSSFSLRCFGESEVSWQYPMSEEESSDVEIRNEENNSGLFVTVLEVSSASAAHTGLYTCYYNHTQTEENELEGRHIYIYVPDPDVAFVPLGMTDYLVIVEDDDSAIIPCRTTDPETPVTLHNSEGVVPASYDSRQGFNGTFTVGPYICEATVKGKKFQTIPFNVSALKATSELDLEMEALKTVYKSGETIVVTCAVFNNEVVDLQWTYPGEVKGKGITMLEEIKVPSIKLVYTLTVPEATVKDSGDYECAARQATREVKEMKKVTISVHEKGFIEIKPTFSQLEAVNLHEVKHFVVEVRAYPPPRISWLKNNLTLIENLTEITTDVEKIQEIRYRSKLKLIRAKEEDSGHYTIVAQNEDAVKSYTFELLTQVPSSILDLVDDHHGSTGGQTVRCTAEGTPLPDIEWMICKDIKKCNNETSWTILANNVSNIITEIHSRDRSTVEGRVTFAKVEETIAVRCLAKNLLGAENRELKLVAPTLRSELTVA
For the molecule B4, in experiment [3], the “HCMV inhibition EC50 (TB40-BAC4-IE-GLuc, fibroblasts, immediate-early antigen staining)” value came out at 0.0311 µg/mL.

B5: PDGFRα-Fc I139A + Y206A (Fc fusion)
chain: QLSLPSILPNENEKVVQLNSSFSLRCFGESEVSWQYPMSEEESSDVEIRNEENNSGLFVTVLEVSSASAAHTGLYTCYYNHTQTEENELEGRHIYIYVPDPDVAFVPLGMTDYLVAVEDDDSAIIPCRTTDPETPVTLHNSEGVVPASYDSRQGFNGTFTVGPYICEATVKGKKFQTIPFNVAALKATSELDLEMEALKTVYKSGETIVVTCAVFNNEVVDLQWTYPGEVKGKGITMLEEIKVPSIKLVYTLTVPEATVKDSGDYECAARQATREVKEMKKVTISVHEKGFIEIKPTFSQLEAVNLHEVKHFVVEVRAYPPPRISWLKNNLTLIENLTEITTDVEKIQEIRYRSKLKLIRAKEEDSGHYTIVAQNEDAVKSYTFELLTQVPSSILDLVDDHHGSTGGQTVRCTAEGTPLPDIEWMICKDIKKCNNETSWTILANNVSNIITEIHSRDRSTVEGRVTFAKVEETIAVRCLAKNLLGAENRELKLVAPTLRSELTVA
Turning to B5, in experiment [3], the “HCMV inhibition EC50 (TB40-BAC4-IE-GLuc, fibroblasts, immediate-early antigen staining)” value came to 0.0198 µg/mL.

B6: PDGFRα-Fc Y206S + V242K (Fc fusion)
chain: QLSLPSILPNENEKVVQLNSSFSLRCFGESEVSWQYPMSEEESSDVEIRNEENNSGLFVTVLEVSSASAAHTGLYTCYYNHTQTEENELEGRHIYIYVPDPDVAFVPLGMTDYLVIVEDDDSAIIPCRTTDPETPVTLHNSEGVVPASYDSRQGFNGTFTVGPYICEATVKGKKFQTIPFNVSALKATSELDLEMEALKTVYKSGETIVVTCAVFNNEKVDLQWTYPGEVKGKGITMLEEIKVPSIKLVYTLTVPEATVKDSGDYECAARQATREVKEMKKVTISVHEKGFIEIKPTFSQLEAVNLHEVKHFVVEVRAYPPPRISWLKNNLTLIENLTEITTDVEKIQEIRYRSKLKLIRAKEEDSGHYTIVAQNEDAVKSYTFELLTQVPSSILDLVDDHHGSTGGQTVRCTAEGTPLPDIEWMICKDIKKCNNETSWTILANNVSNIITEIHSRDRSTVEGRVTFAKVEETIAVRCLAKNLLGAENRELKLVAPTLRSELTVA
With B6, in experiment [2], the “HCMV inhibition EC50 (fibroblasts, immediate-early antigen staining)” value was found to be 0.047 µg/mL.

B7: PDGFRα-Fc I139E (Fc fusion)
chain: QLSLPSILPNENEKVVQLNSSFSLRCFGESEVSWQYPMSEEESSDVEIRNEENNSGLFVTVLEVSSASAAHTGLYTCYYNHTQTEENELEGRHIYIYVPDPDVAFVPLGMTDYLVEVEDDDSAIIPCRTTDPETPVTLHNSEGVVPASYDSRQGFNGTFTVGPYICEATVKGKKFQTIPFNVYALKATSELDLEMEALKTVYKSGETIVVTCAVFNNEVVDLQWTYPGEVKGKGITMLEEIKVPSIKLVYTLTVPEATVKDSGDYECAARQATREVKEMKKVTISVHEKGFIEIKPTFSQLEAVNLHEVKHFVVEVRAYPPPRISWLKNNLTLIENLTEITTDVEKIQEIRYRSKLKLIRAKEEDSGHYTIVAQNEDAVKSYTFELLTQVPSSILDLVDDHHGSTGGQTVRCTAEGTPLPDIEWMICKDIKKCNNETSWTILANNVSNIITEIHSRDRSTVEGRVTFAKVEETIAVRCLAKNLLGAENRELKLVAPTLRSELTVA
On to B7, for which the “EC50 for inhibition of PDGF signaling (6 ng/ml PDGF-BB, phospho-Akt ELISA, fibroblasts); the paper says incomplete inhibition precludes a precise value” with PDGF-BB is about 2 µg/mL. In experiment [3], the “HCMV inhibition EC50 (TB40-BAC4-IE-GLuc, fibroblasts, immediate-early antigen staining)” value is 0.0328 µg/mL.
